{
  "source": "patent US20160264651A1",
  "about": "(Hoffmann-La Roche, published 2016)",
  "key": {"[1]": {"biological_target": "T1, TNC Fn5-A1-humanA2-A3 antigen construct (human TNC A2 domain in the context of domains A1 and A3), E. … (human, UniProt P24821 991-1075; P24821 1076-1257; P24821 1258-1350, limits assumed, biotinylated)", "T1 construct": "domain: fifth fibronectin type III domain (Fn5);domain: A1 and A2 domain;domain: A3 domain; Not glycosylated; also called Immob E. coli Ag", "T1 sequence (looked up)": "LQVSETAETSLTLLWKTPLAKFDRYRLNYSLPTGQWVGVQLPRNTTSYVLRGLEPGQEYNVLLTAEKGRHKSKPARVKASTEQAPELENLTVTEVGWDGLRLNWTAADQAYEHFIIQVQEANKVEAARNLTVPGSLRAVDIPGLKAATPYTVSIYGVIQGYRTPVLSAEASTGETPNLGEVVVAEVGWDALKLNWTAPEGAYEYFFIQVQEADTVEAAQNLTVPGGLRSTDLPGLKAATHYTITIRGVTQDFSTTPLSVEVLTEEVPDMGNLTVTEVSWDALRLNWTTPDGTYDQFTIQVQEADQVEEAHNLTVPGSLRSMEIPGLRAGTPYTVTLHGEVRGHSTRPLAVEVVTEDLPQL", "assay": "SPR, Biacore T100, biotinylated antigen on streptavidin chip, Fab as analyte", "experimental": "(§1) The affinity of the TNC A2 2B10 Fab fragment as well as of the human IgG1 converted TNC A2 2B10 antibody was subsequently determined and confirmed for human, murine and cynomolgus TNC A2 domain by surface plasmon resonance using a BIACORE® T100 machine (GE Healthcare) at 25° C. For this purpose the biotinylated antigens (expressed in E. coli, antigen in context but not glycosylated) were immobilized on a streptavidin chip and the constructs were used as analytes. For immobilization the antigens were diluted with HBS-EP+ (GE Healthcare, 10 mM HEPES, 150 mM NaCl, 3 mM EDTA, 0.05% Surfactant P20, pH 7.4) to 0.1 μg/ml before injection at a flow rate of 10 μl/minute to achieve approximately 80 response units (RU) of coupled protein. The TNC A2 domain from man, mouse and cynomolgus monkey was expressed in the context of the domains A1 and A3. The antigen constructs comprising the fifth fibronectin type III domain of human TNC (Fn5), the A1 and A2 domain of either human, murine or cynomolgus TNC, and the A3 domain of human TNC (TNC Fn5-A1-human/murine/cynoA2-A3) are shown in SEQ ID NOs 99-104.\n(§2) For kinetics measurements, two-fold serial dilutions of Fab fragments (range between 1.56 nM to 100 nM) or IgG (range between 0.39 nM to 25 nM) were injected in HBS-EP+ at 25° C. at a flow rate of 50 μl/min. Association and dissociation times were 180 s and a regeneration with 10 mM glycine pH 1.5 for 60 s was performed between cycles. Association rates (kₒₙ) and dissociation rates (koff) were calculated using a simple one-to-one Langmuir binding model (BIACORE® T100 Evaluation Software version 1.1.1) by simultaneously fitting the association and dissociation sensorgrams. The equilibrium dissociation constant (KD) was calculated as the ratio koff/kₒₙ. See, e.g., Chen et al., J Mol Biol 293, 865-881 (1999)"}, "[2]": {"biological_target": "T2, TNC Fn5-A1-murineA2-A3 antigen construct (murine TNC A2 domain in the context of domains A1 and A3), E. … (human; murine, UniProt P24821 991-1075; Q80YX1 1076-1257; P24821 1258-1350, limits assumed, biotinylated)", "T2 construct": "domain: fifth fibronectin type III domain (Fn5);domain: A1 and A2 domain;domain: A3 domain; also called Immob E. coli Ag", "T2 sequence (looked up)": "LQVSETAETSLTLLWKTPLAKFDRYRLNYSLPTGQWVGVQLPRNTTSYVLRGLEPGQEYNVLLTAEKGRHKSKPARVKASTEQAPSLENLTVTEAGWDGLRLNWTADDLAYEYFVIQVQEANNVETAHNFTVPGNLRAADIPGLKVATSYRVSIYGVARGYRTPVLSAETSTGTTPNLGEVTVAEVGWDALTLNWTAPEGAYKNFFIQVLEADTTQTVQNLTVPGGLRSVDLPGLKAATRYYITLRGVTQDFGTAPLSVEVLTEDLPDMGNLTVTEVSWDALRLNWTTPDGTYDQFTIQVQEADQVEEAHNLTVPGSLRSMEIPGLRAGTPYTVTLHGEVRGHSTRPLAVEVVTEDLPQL", "assay": "SPR, Biacore T100, biotinylated antigen on streptavidin chip, Fab as analyte", "experimental": "as §1, §2"}, "[3]": {"biological_target": "T3, TNC Fn5-A1-cynoA2-A3 antigen construct (cynomolgus TNC A2 domain in the context of domains A1 and A3), E. … (human; cynomolgus, UniProt P24821 991-1075; P24821 1258-1350)", "T3 construct": "also called Cyno TNC; Immob E. coli Ag", "assay": "SPR, Biacore T100, biotinylated antigen on streptavidin chip, Fab as analyte", "experimental": "as §1, §2"}, "[4]": {"biological_target": "T4, E. coli-expressed human TNC A2 with C-terminal avi-tag and 6xHis-tag, biotinylated (human, biotinylated in vivo upon expression (avi-tag))", "T4 construct": "Used for the selections and ELISA; also called hu TNC A2; biotinylated human TNC A2", "T4 chain": "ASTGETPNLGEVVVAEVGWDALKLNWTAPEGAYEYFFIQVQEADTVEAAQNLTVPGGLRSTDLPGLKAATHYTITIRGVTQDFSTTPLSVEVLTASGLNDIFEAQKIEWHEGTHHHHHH", "assay": "ELISA, biotinylated human TNC-A2 on neutravidin plates, Fab supernatants detected by anti-Flag/HRP", "experimental": "Selections were carried out over 3 rounds using constant antigen concentrations at 100 nM. In round 2, capture of antigen:phage complexes was performed on neutravidin plates instead of streptavidin beads. Specific binders were identified by ELISA as follows using: 100 μl of 100 nM biotinylated human TNC-A2 was coated in each well of neutravidin plates. Fab-containing bacterial supernatants were added and binding Fabs were detected via their Flag-tags by using an anti-Flag/HRP secondary antibody. Once identified, clone 2B10 was bacterially expressed in a 0.5 litre culture volume, affinity purified and further characterized by SPR-analysis using BIACORE T100. See SEQ ID NOs: 56 and 60."}, "[5]": {"biological_target": "T4, E. coli-expressed human TNC A2 with …", "assay": "selection on human TNC A2, ELISA and ProteOn screening", "experimental": "Selections were carried out against E. coli expressed human TNC A2 which was cloned upstream an avi-tag and 6×his-tag (see SEQ ID NO: 97). The antigen was biotinylated in vivo upon expression. Selections have been carried out in solution as described for the primary TNC A2 selections using decreasing concentrations of human TNC A2 ranging from 100 to 2 nM. After identification of affinity-matured clones by ELISA, secondary screenings were carried out using a ProteOn XPR36 biosensor (Biorad) and kinetic rate constants and affinities were determined analyzing affinity-purified Fab preparations on the same instrument. KD was measured by surface plasmon resonance using a ProteOn XPR36 machine (Biorad) at 25° C. with antigens immobilized on NLC sensor chips (Biorad). Briefly, recombinant antigen was diluted to 10 μg/ml in PBS/0.005% Tween-20, pH 7.4 and injected at […] for 100 to 300 s to achieve approximately 200-800 response units (RU) of coupled antigen. […] Association rates (kₒₙ) and dissociation rates (koff) were calculated using a simple one-to-one Langmuir binding model (ProteOn manager software version 2.1) by simultaneously fitting the association and dissociation sensorgrams. The equilibrium dissociation constant (KD) is calculated as the ratio koff/kₒₙ."}, "[6]": {"biological_target": "T1, TNC Fn5-A1-humanA2-A3 antigen construct …", "assay": "SPR, Biacore T100, biotinylated antigen on streptavidin chip, IgG as analyte (avidity)", "experimental": "as §1, §2"}, "[7]": {"biological_target": "T2, TNC Fn5-A1-murineA2-A3 antigen …", "assay": "SPR, Biacore T100, biotinylated antigen on streptavidin chip, IgG as analyte (avidity)", "experimental": "as §1, §2"}, "[8]": {"biological_target": "T3, TNC Fn5-A1-cynoA2-A3 antigen construct …", "assay": "SPR, Biacore T100, biotinylated antigen on streptavidin chip, IgG as analyte (avidity)", "experimental": "as §1, §2"}},
  "data": [
    {"binder": "2B10 anti-TNC A2 Fab fragment (parental clone 2B10) (Fab, V domains shown, also called TNC A2 2B10 Fab fragment; Fab fragment 2B10) VH: QVQLVQSGAEVKKPGSSVKVSCKASGGTFSSYAISWVRQAPGQGLEWMGGIIPIFGTANYAQKFQGRVTITADKSTSTAYMELSSLRSEDTAVYYCARLYGYAYYGAFDYWGQGTTVTVSS VL: DIQMTQSPSSLSASVGDRVTITCRASQGIRNDLGWYQQKPGKAPKRLIYAASSLQSGVPSRFSGGGSGTEFTLTISSLQPEDFATYYCLQNGLQPATFGQGTKVEIK", "values": [
      {"measurement": "Kd", "setting": "[1]", "value": 1.8, "unit": "nM"},
      {"measurement": "Kd", "setting": "[2]", "value": 180, "unit": "nM"},
      {"measurement": "Kd", "setting": "[3]", "value": 17, "unit": "nM"},
      {"measurement": "binding result", "setting": "[4]", "value": "binds"}
    ]},
    {"binder": "2B10_D1A2 affinity-matured anti-TNC A2 Fab clone (Fab, V domains shown, From the VL sub-library; No KD is printed for this clone; also called clone 2B10_D1A2) VH: QVQLVQSGAEVKKPGSSVKVSCKASGGTFSSYAISWVRQAPGQGLEWMGGIIPIFGTANYAQKFQGRVTITADKSTSTAYMELSSLRSEDTAVYYCARLYGYAYYGAFDYWGQGTTVTVSS VL: DIQMTQSPSSLSASVGDRVTITCRASQGIRNVLGWYQQKPGKAPKRLIYDAYSLQSGVPSRFSGGGSGTEFTLTISSLQPEDFATYYCLQNGLQPATFGQGTKVEIK", "values": [
      {"measurement": "binding result", "setting": "[5]", "value": "binds"}
    ]},
    {"binder": "2B10 anti-TNC A2 human IgG1 antibody (wild-type, non-glycoengineered) (antibody, V domains shown, also called IgG 2B10; 2B10 human IgG) VH: QVQLVQSGAEVKKPGSSVKVSCKASGGTFSSYAISWVRQAPGQGLEWMGGIIPIFGTANYAQKFQGRVTITADKSTSTAYMELSSLRSEDTAVYYCARLYGYAYYGAFDYWGQGTTVTVSS VL: DIQMTQSPSSLSASVGDRVTITCRASQGIRNDLGWYQQKPGKAPKRLIYAASSLQSGVPSRFSGGGSGTEFTLTISSLQPEDFATYYCLQNGLQPATFGQGTKVEIK", "values": [
      {"measurement": "Kd", "setting": "[6]", "value": 0.29, "unit": "nM"},
      {"measurement": "Kd", "setting": "[7]", "value": 1.9, "unit": "nM"},
      {"measurement": "Kd", "setting": "[8]", "value": 0.21, "unit": "nM"}
    ]}
  ]
}
